Reference: article PMC5123051, “Neutralization mechanism of a highly potent antibody against Zika virus” (Nature Communications, 2016)

Target: T1, Zika virus envelope (E) protein on purified ZIKV particles, strain H/PF/2013 (Zika virus H/PF/2013 (French Polynesia …, strain))
T1 construct: envelope protein E of Zika virus strain H/PF/2013, cut product of the viral polyprotein, on the virus surface; Stood in the assay as whole virus particles: 180 copies of E in icosahedral symmetry, as dimers, three dimers forming a raft, 30 rafts; M protein and the lipid membrane are also present; E carries a glycan on the '150 glycan loop'; also called molecules A, B and C; source: Aedes …
Assay: cryo-EM structure; Fab C10 mixed with purified ZIKV at 1.5 Fab to every E protein, 30 min at 37 °C then ~1 h on ice; pH8.0 (NTE buffer); 4.0 Å
Details: both partners purified

B1: Fab C10 (Fab, V domains shown)
VH: EVQLVESGAEVKKPGASVKVSCKASGYTFTSYAMHWVRQAPGQRLEWMGWINAGNGNTKYSQKFQDRVTITRDTSASTAYMELSSLRSEDTAIYYCARDKVDDYGDYWFPTLWYFDYWGQGTLVTVS
VL: ALTQPASVSGSPGQSITISCTGTSSDVGGFNYVSWFQQHPGKAPKLMLYDVTSRPSGVSSRFSGSKSGNTASLTISGLQAEDEADYYCSSHTSRGTWVFGGGTKLTVL
notes: heavy chain variable region of C10; human IgG1 heavy chain constant region, the part that stays in the Fab after papain digestion; light chain variable region of C10; human lambda 2 light chain constant region; Fab cut from the IgG with papain; also called Fab fragment of HMAb C10; Fab regions of C10 IgG; source: C10 IgG from HEK293T cells, transiently co-transfected, protein A purified; Fab by …
With B1 the “stoichiometry N” value was 180 copies of Fab per virus particle.
